Test results reported in patent US20240226230A1 (MAYO FOUNDATION FOR MEDICAL EDUCATION AND RESEARCH, published 2024).
Each block holds one binder with its values, some of them ahead of it. Where no end group is shown, it is not given here.

Tests used:
endogenous Nup62 [1] = target: T1, endogenous Nup62 (human, UniProt P37198 2-522); test: co-IP, western blot
T1 construct: Detected with anti-Nup62
T1 sequence (looked up): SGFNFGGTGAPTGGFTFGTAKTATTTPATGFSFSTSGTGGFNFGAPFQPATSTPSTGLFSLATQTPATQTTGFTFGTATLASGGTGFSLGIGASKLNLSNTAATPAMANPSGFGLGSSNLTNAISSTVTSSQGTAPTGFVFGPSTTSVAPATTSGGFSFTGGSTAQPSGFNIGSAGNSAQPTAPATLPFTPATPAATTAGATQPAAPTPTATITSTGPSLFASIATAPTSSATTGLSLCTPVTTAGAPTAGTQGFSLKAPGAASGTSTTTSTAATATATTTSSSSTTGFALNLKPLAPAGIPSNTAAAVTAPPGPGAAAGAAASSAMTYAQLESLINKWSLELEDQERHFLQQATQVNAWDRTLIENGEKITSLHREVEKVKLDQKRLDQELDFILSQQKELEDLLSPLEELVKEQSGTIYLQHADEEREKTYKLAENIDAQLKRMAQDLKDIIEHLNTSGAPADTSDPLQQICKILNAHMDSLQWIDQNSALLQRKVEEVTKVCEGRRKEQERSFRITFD
Excerpt: RanGTP and importin-α interact with H1-8 and H8-19, respectively. FG-Nups bind to two regions of KPNB1, H5-7 and H14-16. FIG. 21B) Lysates from HEK293T cells expressing GFP, GFP-KPNB1 full-length (FL), N-terminal fragments of KPNB1 (H1-9 . . . H1) or the C-terminal fragment of KPNB1 (H10-19) were subjected to immunoprecipitation with GFP-Trap magnetic beads. Whole cell lysates (input) and immunoprecipitates (IP) were subjected to western blot analysis using indicated antibodies. KPNB1 H1-8, the smallest fully active KPNB1 fragment in reducing TDP-43 aggregation, strongly interacts with FG-Nups and Ran, and weakly with importin-al in comparison with full-length KPNB1. FIG. 21C) (Top) Schematic domain structure of KPNB1 H1-8^mNIS harboring four missense mutations (1178A, F217A, Y255A, I263R) in the nucleoporin-interacting site (NIS). (Bottom) Lysates from HEK293T cells expressing GFP, GFP-KPNB1 H1-8^WT or H1-8^mNIS were subjected to immunoprecipitation with GFP-Trap magnetic beads. Whole cell lysates (input) and immunoprecipitates (IP) were subjected to western blot analysis using indicated antibodies. […] Hoechst staining was used to outline nuclei. Scale bar: 5 μm. […] FIG. 21G) Quantification of the percentage of cells with cytoplasmic GR aggregates positive for endogenous TDP-43.

mCherry-KPNB1 = target: T2, mCherry-KPNB1 (Homo sapiens (Human), UniProt Q14974 1-876); test: co-IP with mCherry-KPNB1, western blot
T2 construct: mCherry was cloned into GFP-KPNB1; also called mCherry-tagged KPNB1; not shown: mCherry tag (mCherry-C1, Clontech)
T2 sequence (Q14974 other isoform, or with tags, fused parts or gaps): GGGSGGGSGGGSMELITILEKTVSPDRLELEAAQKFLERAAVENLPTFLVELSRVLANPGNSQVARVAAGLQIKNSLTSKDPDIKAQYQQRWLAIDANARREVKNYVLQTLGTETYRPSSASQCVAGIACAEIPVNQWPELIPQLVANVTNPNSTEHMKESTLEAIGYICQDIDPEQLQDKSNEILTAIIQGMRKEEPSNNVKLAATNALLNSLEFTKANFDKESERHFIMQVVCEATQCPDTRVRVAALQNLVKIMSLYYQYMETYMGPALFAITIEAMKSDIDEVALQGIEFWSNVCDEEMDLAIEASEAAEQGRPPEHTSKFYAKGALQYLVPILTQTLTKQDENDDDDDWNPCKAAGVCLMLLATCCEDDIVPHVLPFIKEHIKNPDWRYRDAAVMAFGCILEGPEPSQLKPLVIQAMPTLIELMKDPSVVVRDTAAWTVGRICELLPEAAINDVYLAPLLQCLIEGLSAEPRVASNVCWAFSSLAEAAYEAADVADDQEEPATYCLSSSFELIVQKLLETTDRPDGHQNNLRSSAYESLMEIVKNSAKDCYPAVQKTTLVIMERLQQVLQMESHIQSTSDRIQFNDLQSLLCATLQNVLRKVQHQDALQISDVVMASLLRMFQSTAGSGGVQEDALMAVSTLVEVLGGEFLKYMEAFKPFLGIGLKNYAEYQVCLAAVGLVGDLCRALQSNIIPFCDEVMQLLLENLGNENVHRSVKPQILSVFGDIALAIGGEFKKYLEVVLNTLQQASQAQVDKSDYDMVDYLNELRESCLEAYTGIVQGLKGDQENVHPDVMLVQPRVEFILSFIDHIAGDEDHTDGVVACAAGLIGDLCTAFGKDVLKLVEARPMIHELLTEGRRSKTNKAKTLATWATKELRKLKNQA
Excerpt: FIG. 30B) Lysates from HEK293T cells co-expressing mCherry-KPNB1 with GFP, GFP-TDP-CTF or GFP-TDP-CTF C-terminal deletion constructs were subjected to immunoprecipitation with RFP-Trap magnetic beads. Whole cell lysates (input) and immunoprecipitates (IP) were subjected to western blot analysis using indicated antibodies. Deletion of amino-acids 230-240 in TDP-CTF reduced its binding to KPNB1. FIG. 30C) Lysates from HEK293T cells co-expressing mCherry-KPNB1 with GFP, GFP-TDP-CTF or GFP-TDP-CTF N-terminal deletion constructs were subjected to immunoprecipitation with RFP-Trap magnetic beads. Whole cell lysates (input) and immunoprecipitates (IP) were subjected to western blot analysis using indicated antibodies. Deletion of amino-acids 230-240 in TDP-CTF reduces its binding to KPNB1. TDP-PrLD weakly interacts with KPNB1. FIG. 30D) (Left) Lysates from HEK293T cells co-expressing mCherry-KPNB1 with GFP, GFP-TDP-CTF^WT or GFP-TDP-CTF^Δ230-240 were subjected to immunoprecipitation with RFP-Trap magnetic beads. […] (Right) Quantification of relative GFP levels in IP normalized by GFP levels in input confirm that GFP-TDP-CTF^Δ230-240 interacts less with mCherry-KPNB1. […] FIG. 30F) Western blot analysis and quantification of insoluble GFP-tagged TDP-CTF^WT or TDP-CTF^Δ230-240 in HEK293T cells expressing mCherry or mCherry-KPNB1. […]

endogenous Nup62 [2] = target: T1, endogenous Nup62; test: co-localisation by immunofluorescence in HEK293T cells (not a direct binding assay)
Excerpt: (§1) FIGS. 31A-31C: The PrLD of TDP-43 interacts with FG-Nups and KPNB1. FIG. 31A) Immunofluorescence (IF) of HEK293T cells expressing GFP or GFP-TDP-PrLD and stained for endogenous Nup98 and Nup62. TDP-PrLD forms small cytoplasmic foci positive for Nup62. FIG. 31B) IF of HEK293T cells expressing GFP or GFP-TDP-PrLD and stained for endogenous KPNB1. KPNB1 colocalizes with TDP-PrLD foci in the cytoplasm. Hoechst staining was used to outline nuclei. Scale bar: 5 μm. FIG. 31C) Lysates from HEK293T cells expressing GFP or GFP-TDP-PrLD were subjected to immunoprecipitation with GFP-Trap magnetic beads. Whole cell lysates (input) and immunoprecipitates (IP) were subjected to western blot analysis using indicated antibodies. The PrLD of TDP-43 interacts with Nup62, Nup98 and KPNB1, but not with Ran.

endogenous KPNB1 = target: T3, endogenous KPNB1 (human, UniProt Q14974 1-876); test: as above
T3 construct: Endogenous protein detected with anti-KPNB1
T3 sequence (Q14974 whole entry): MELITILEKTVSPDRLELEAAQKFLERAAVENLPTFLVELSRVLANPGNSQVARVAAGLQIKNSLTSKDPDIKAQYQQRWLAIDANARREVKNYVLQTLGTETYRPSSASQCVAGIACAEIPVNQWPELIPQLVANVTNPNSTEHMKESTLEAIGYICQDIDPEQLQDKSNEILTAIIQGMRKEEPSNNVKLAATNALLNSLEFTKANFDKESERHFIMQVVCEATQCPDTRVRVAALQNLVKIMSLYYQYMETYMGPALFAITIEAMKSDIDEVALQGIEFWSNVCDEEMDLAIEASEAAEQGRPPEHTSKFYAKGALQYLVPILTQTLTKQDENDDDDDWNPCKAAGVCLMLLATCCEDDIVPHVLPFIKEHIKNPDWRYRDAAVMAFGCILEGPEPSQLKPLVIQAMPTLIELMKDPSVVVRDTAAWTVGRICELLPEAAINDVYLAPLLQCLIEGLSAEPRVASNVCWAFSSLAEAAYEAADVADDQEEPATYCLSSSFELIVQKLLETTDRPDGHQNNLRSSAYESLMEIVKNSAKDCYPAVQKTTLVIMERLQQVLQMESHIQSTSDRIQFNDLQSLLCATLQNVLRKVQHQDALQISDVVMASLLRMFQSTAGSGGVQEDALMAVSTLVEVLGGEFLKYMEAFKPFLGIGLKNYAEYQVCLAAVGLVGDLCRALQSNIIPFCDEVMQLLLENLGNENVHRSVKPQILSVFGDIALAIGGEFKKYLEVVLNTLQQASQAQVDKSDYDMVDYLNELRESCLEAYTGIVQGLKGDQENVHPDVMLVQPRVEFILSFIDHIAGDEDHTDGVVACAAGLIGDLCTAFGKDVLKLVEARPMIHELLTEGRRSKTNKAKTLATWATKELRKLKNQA
Excerpt: as §1

endogenous Nup98 = target: T4, endogenous Nup98 (human, UniProt P52948 1-880); test: GFP-Trap IP from HEK293T lysates, western blot
T4 sequence (looked up): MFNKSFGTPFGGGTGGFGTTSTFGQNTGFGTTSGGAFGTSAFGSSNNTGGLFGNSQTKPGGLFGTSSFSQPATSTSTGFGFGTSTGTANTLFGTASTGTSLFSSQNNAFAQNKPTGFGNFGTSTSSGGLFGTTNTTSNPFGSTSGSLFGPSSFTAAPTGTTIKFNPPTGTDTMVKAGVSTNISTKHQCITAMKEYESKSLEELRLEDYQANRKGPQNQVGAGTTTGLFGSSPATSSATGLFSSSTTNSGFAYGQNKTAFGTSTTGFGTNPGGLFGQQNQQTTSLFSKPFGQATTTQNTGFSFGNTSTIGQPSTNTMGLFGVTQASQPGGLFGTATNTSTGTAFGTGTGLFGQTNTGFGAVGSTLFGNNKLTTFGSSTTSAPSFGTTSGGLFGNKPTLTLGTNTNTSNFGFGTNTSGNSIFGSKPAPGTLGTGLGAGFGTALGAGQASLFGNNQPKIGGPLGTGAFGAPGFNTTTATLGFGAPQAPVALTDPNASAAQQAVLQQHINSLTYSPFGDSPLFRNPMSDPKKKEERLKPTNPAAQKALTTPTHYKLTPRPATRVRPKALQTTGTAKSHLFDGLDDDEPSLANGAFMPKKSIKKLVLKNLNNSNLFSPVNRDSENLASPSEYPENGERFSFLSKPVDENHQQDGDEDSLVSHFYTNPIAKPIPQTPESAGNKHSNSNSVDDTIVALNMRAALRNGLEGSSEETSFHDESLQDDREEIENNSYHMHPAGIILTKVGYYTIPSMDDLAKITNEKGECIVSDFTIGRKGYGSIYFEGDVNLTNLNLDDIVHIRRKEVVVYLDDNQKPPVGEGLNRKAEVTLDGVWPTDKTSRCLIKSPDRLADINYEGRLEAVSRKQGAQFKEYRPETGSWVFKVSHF
Excerpt: (§2) FIGS. 29A-29C: Untagged KPNB1 interacts with both the RRM2 and PrLD of TDP-CTF. FIG. 29A) (Left) Lysates from HEK293T cells expressing GFP alone, or untagged KPNB1 with GFP, GFP-TDP-CTF or GFP-TDP43^WT were subjected to immunoprecipitation with GFP-Trap magnetic beads. Whole cell lysates (input) and immunoprecipitates (IP) were subjected to western blot analysis using indicated antibodies. (Right) Quantification of relative KPNB1 levels in IP normalized by KPNB1 levels in input. Statistical analysis was performed using one-way ANOVA and Bonferroni's post hoc test (**p<0.01, ***p<0.001, n=3). […] FIG. 29C) (Left) Lysates from HEK293T cells expressing GFP alone, or untagged KPNB1 with GFP, GFP-TDP-CTF, GFP-TDP-CTF^non-PrLD or GFP-TDP-PrLD were subjected to immunoprecipitation with GFP-Trap magnetic beads. Whole cell lysates (input) and immunoprecipitates (IP) were subjected to western blot analysis using indicated antibodies. (Right) Quantification of relative KPNB1 levels in IP normalized by KPNB1 levels in input. Statistical analysis was performed using one-way ANOVA and Bonferroni's post hoc test (***p<0.001, n=3).
as §1
(§3) HEK293T cells were seeded in 6-well plates and transfected for 48 hours. Cells were then lysed in IP Lysis buffer (Fisher) supplemented with a protease inhibitor cocktail (Roche), and were centrifuged at 15000 rpm for 20 minutes at 4° C. A small aliquot of the recovered supernatant was set aside (input).

Untagged KPNB1 = target: T5, Untagged KPNB1 (Homo sapiens (Human), UniProt Q14974 1-876); test: GFP-Trap IP from HEK293T lysates, western blot
T5 construct: KPNB1 amplified by PCR and cloned into pEGFP-C1 lacking the GFP tag; also called Wildtype KPNB1
T5 sequence (Q14974 whole entry): as the sequence (Q14974 whole entry) above
Excerpt: as §2, §1, §3

endogenous Ran = endogenous Ran (human, UniProt P62826 2-216); test: GFP-Trap IP from HEK293T lysates, western blot
Excerpt: as §2, §1, §3

binding result (endogenous Nup62 [1]): no binding
B1: GFP-KPNB1 H1-8^mNIS (receptor)
chain: GGGSGGGSGGGSMELITILEKTVSPDRLELEAAQKFLERAAVENLPTFLVELSRVLANPGNSQVARVAAGLQIKNSLTSKDPDIKAQYQQRWLAIDANARREVKNYVLQTLGTETYRPSSASQCVAGIACAEIPVNQWPELIPQLVANVTNPNSTEHMKESTLEAIGYICQDIDPEQLQDKSNEILTAIAQGMRKEEPSNNVKLAATNALLNSLEFTKANFDKESERHAIMQVVCEATQCPDTRVRVAALQNLVKIMSLYYQYMETAMGPALFARTIEAMKSDIDEVALQGIEFWSNVCDEEMDLAIEASEAAEQGRPPEHTSKFYAKGALQYLVPILTQTLTKQDENDDDDDWNPCKAAGVCLMLLATCCED
notes: also called KPNB1-mNIS; not shown: GFP/EGFP tag (pEGFP-C1, Clontech)

binding result (mCherry-KPNB1): binds
B2: GFP-TDP-CTF 208-239 (other, human)
chain: {GFP}-GGGSGGGSGGGSREFFSQYGDVMDVFIPKPFRAFAFVTFADDQI
modifications: also: GFP tag fused N-terminally, not in chain, (GGGS)3 linker in chain
notes: not shown: GFP/EGFP tag (pEGFP-C1, Clontech)

binding result (endogenous Nup62 [2]): binds
binding result (endogenous KPNB1): binds
binding result (endogenous Nup98): binds
binding result (Untagged KPNB1): binds
binding result (endogenous Ran): no binding
B3: GFP-TDP-PrLD (other, human)
chain: GGGSGGGSGGGSRFGGNPGGFGNQGGFGNSRGGGAGLGNNQGSNMGGGMNFGAFSINPAMMAAAQAALQSSWGMMGMLASQQNQSGPSGNNQNQGNMQREPNQAFGSGNNSYSGSNSGAAIGWGSASNAGSGSGFNGGFGSSMDSKSSGWGM
notes: also called GFP-TDP-43 PrLD; TDP-PrLD (aa275-414); not shown: GFP/EGFP tag (pEGFP-C1, Clontech)
